In patent US20230090502:

Assays:
[1] = system: T1, Biosyn#1 (cov19) Dabcyl-TSAVLQSGFRK-EDANS
T1 sequence: TSAVLQSGFRK

[2] = system: T2, Biosyn#6 (229e) Dabcyl-YGSTLQAGLRK-EDANS
T2 sequence: YGSTLQAGLRK

[3] = system: Biosyn#7 (HRV) Dabcyl-LEALFQGP[Asp-(EDANS) SQ [Amide]

Question: What does the source list for Human Rhinovirus (HRV) 3C protease?
Answer: % Enz activity [1]: -1%; Enzymatic activity, Slope; 5 uM substrate, 150 ng/reaction enzyme [1]: -12 RFU/min; enzymatic activity, in words [1]: Complete specificity (no cross reactivity) was observed for the most abundant common cold virus, HRV.; % Enz activity [2]: -7%; Enzymatic activity, Slope; 5 uM substrate, 150 ng/reaction enzyme [2]: 44 RFU/min; enzymatic activity, in words [2]: Complete specificity (no cross reactivity) was observed for the most abundant common cold virus, HRV.; % Enz activity [3]: 100%; Enzymatic activity, Slope; 5 uM substrate, 150 ng/reaction enzyme [3]: 1040 RFU/min; enzymatic activity, in words [3]: The Biosyn #7 substrate was specific for HRV.; % Enz activity: 1%; Enzymatic activity, Slope; 5 uM substrate, 150 ng/reaction enzyme: 87 RFU/min; enzymatic activity, in words: Complete specificity (no cross reactivity) was observed for the most abundant common cold virus, HRV.
